A word on the Kd: it is a measure of binding affinity in units of concentration.

Read-outs that look alike come from different tables or passages of the source.

Assay [1] has as its target Recombinant MEK1 (immobilised in SPR) (human) (UniProt Q02750). As to the kind of experiment: SPR. On the technique in general: In SPR one partner is held on a chip, and binding of the other changes the refractive index at the surface.
The target is the same in assay [2]. Description: SPR. The source holds these as a separate data set.

“HIS-CCS (copper chaperone for superoxide dismutase) (from UniProt O14618 1-274) (natural protein)”: the Kd was found to be 8 µM in assay [1] and 2090 nM in assay [2].
